# From paper PMC10869273 (Nature Biotechnology, 2023)
# Molecular target: SARS-CoV-2 Omicron BA.1 receptor-binding domain (RBD) (SARS-CoV-2 Omicron BA.1, strain, biotin on the AviTag (expressed in the presence of BirA))
binder,measurement,value
"REGN10987 VH R16G-V108D (antibody, V domains shown) VH: QVQLVESGGGVVQPGGSLRLSCAASGFTFSNYAMYWVRQAPGKGLEWVAVISYDGSNKYYADSVKGRFTISRDNSKNTLYLQMNSLRTEDTAVYYCASGSDYGDYLLDYWGQGTLVTVSS VL: QSALTQPASVSGSPGQSITISCTGTSSDVGGYNYVSWYQQHPGKAPKLMIYDVSKRPSGVSNRFSGSKSGNTASLTISGLQSEDEADYYCNSLTSISTWVFGGGTKLTVL",binding result,binds
